B1: LARP4 (parent)
chain: WTVANMEEIKKLTTDPDLILEVLR

For 94 variants, protein stability index results are on record in the supplement of paper PMC10567573.
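Note: lentivirally expressed fusions sorted by FACS into six bins by GFP to DsRed ratio, PSI derived from sequencing read proportions per bin multiplied by bin number.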

The variants in this series derive from B1. Nature of the series: protein stability index of a GFP-peptide fusion (GPS, HEK-293T) (PSI 1-6); higher = more stable. Conditions: c terminus: a fixed tail appended.
With QTVANMEEIKKLTTDPDLILEVLR, the protein stability index came to 2.91.

On to VTVANMEEIKKLTTDPDLILEVLR, for which the protein stability index stood at 2.89.

For the variant PTVANMEEIKKLTTDPDLILEVLR, the protein stability index was determined as 2.71.

Regarding MTVANMEEIKKLTTDPDLILEVLR, the protein stability index is 2.88.

For LTVANMEEIKKLTTDPDLILEVLR, the protein stability index was found to be 2.14.

As to NTVANMEEIKKLTTDPDLILEVLR, the protein stability index stood at 2.49.

With ITVANMEEIKKLTTDPDLILEVLR, the protein stability index was determined as 2.25.

Turning to ETVANMEEIKKLTTDPDLILEVLR, the protein stability index is 2.75.

Turning to ATVANMEEIKKLTTDPDLILEVLR, the protein stability index is 1.9.

Consider STVANMEEIKKLTTDPDLILEVLR, for which the protein stability index is 2.33.

HTVANMEEIKKLTTDPDLILEVLR: the protein stability index was 2.55.

Turning to GTVANMEEIKKLTTDPDLILEVLR, the protein stability index is 2.63.

In the case of KTVANMEEIKKLTTDPDLILEVLR, the protein stability index was found to be 2.26.

For the variant RTVANMEEIKKLTTDPDLILEVLR, the protein stability index came to 2.45.

Regarding YTVANMEEIKKLTTDPDLILEVLR, the protein stability index was found to be 2.01.

Take FTVANMEEIKKLTTDPDLILEVLR: the protein stability index is 2.74.

On to DTVANMEEIKKLTTDPDLILEVLR, for which the protein stability index was 3.04.

Consider TTVANMEEIKKLTTDPDLILEVLR, for which the protein stability index stood at 2.32.

Consider CTVANMEEIKKLTTDPDLILEVLR, for which the protein stability index was found to be 1.88.

Regarding WTVANMEVIKKLTTDPDLILEVLR, the protein stability index worked out at 1.4.

Consider WTVANMEHIKKLTTDPDLILEVLR, for which the protein stability index was determined as 2.89.

As for WTVANMENIKKLTTDPDLILEVLR, the protein stability index was found to be 2.03.

Consider WTVANMEWIKKLTTDPDLILEVLR, for which the protein stability index amounted to 1.36.

Turning to WTVANMEPIKKLTTDPDLILEVLR, the protein stability index is 1.82.

As to WTVANMERIKKLTTDPDLILEVLR, the protein stability index worked out at 2.37.

Turning to WTVANMEIIKKLTTDPDLILEVLR, the protein stability index came out at 1.72.

As for WTVANMECIKKLTTDPDLILEVLR, the protein stability index is 2.25.

For the variant WTVANMEFIKKLTTDPDLILEVLR, the protein stability index is 1.7.

As for WTVANMETIKKLTTDPDLILEVLR, the protein stability index came to 1.7.

Regarding WTVANMEMIKKLTTDPDLILEVLR, the protein stability index worked out at 1.47.

Regarding WTVANMEQIKKLTTDPDLILEVLR, the protein stability index was 1.68.

Take WTVANMESIKKLTTDPDLILEVLR: the protein stability index was 1.58.

For the variant WTVANMEAIKKLTTDPDLILEVLR, the protein stability index turned out to be 1.5.

In the case of WTVANMEDIKKLTTDPDLILEVLR, the protein stability index came out at 2.03.

For the variant WTVANMEGIKKLTTDPDLILEVLR, the protein stability index came out at 1.56.

For WTVANMEYIKKLTTDPDLILEVLR, the protein stability index is 2.73.

On to WTVANMELIKKLTTDPDLILEVLR, for which the protein stability index turned out to be 3.14.

As to WTVSNMEEIKKLTTDPDLILEVLR, the protein stability index was 1.9.

Turning to WTVYNMEEIKKLTTDPDLILEVLR, the protein stability index is 1.5.

Regarding WTVDNMEEIKKLTTDPDLILEVLR, the protein stability index was 3.25.

In the case of WTVNNMEEIKKLTTDPDLILEVLR, the protein stability index was 2.59.

Consider WTVPNMEEIKKLTTDPDLILEVLR, for which the protein stability index came to 2.05.

With WTVFNMEEIKKLTTDPDLILEVLR, the protein stability index worked out at 1.69.

Turning to WTVLNMEEIKKLTTDPDLILEVLR, the protein stability index was determined as 1.9.

On to WTVRNMEEIKKLTTDPDLILEVLR, for which the protein stability index amounted to 2.45.

In the case of WTVQNMEEIKKLTTDPDLILEVLR, the protein stability index was 2.61.

WTVWNMEEIKKLTTDPDLILEVLR: the protein stability index stood at 1.21.

Regarding WTVGNMEEIKKLTTDPDLILEVLR, the protein stability index worked out at 2.06.

In the case of WTVHNMEEIKKLTTDPDLILEVLR, the protein stability index was 1.93.

As for WTVKNMEEIKKLTTDPDLILEVLR, the protein stability index was 2.6.

In the case of WTVVNMEEIKKLTTDPDLILEVLR, the protein stability index was found to be 1.43.

For the variant WTVENMEEIKKLTTDPDLILEVLR, the protein stability index is 2.3.

As for WTVCNMEEIKKLTTDPDLILEVLR, the protein stability index came out at 1.92.

WTVMNMEEIKKLTTDPDLILEVLR: the protein stability index was determined as 1.5.

In the case of WTVTNMEEIKKLTTDPDLILEVLR, the protein stability index turned out to be 1.97.

Consider WTVANMGEIKKLTTDPDLILEVLR, for which the protein stability index came to 2.4.

With WTVANMFEIKKLTTDPDLILEVLR, the protein stability index turned out to be 2.55.

As for WTVANMNEIKKLTTDPDLILEVLR, the protein stability index was 2.56.

Regarding WTVANMVEIKKLTTDPDLILEVLR, the protein stability index is 1.93.

Consider WTVANMKEIKKLTTDPDLILEVLR, for which the protein stability index was 1.88.

Regarding WTVANMREIKKLTTDPDLILEVLR, the protein stability index was 1.44.

Take WTVANMDEIKKLTTDPDLILEVLR: the protein stability index worked out at 2.23.

Regarding WTVANMYEIKKLTTDPDLILEVLR, the protein stability index was 2.18.

For the variant WTVANMTEIKKLTTDPDLILEVLR, the protein stability index was found to be 1.91.

For the variant WTVANMSEIKKLTTDPDLILEVLR, the protein stability index came out at 1.7.

In the case of WTVANMHEIKKLTTDPDLILEVLR, the protein stability index worked out at 1.59.

For WTVANMAEIKKLTTDPDLILEVLR, the protein stability index was 1.9.

For the variant WTVANMQEIKKLTTDPDLILEVLR, the protein stability index worked out at 2.28.

As for WTVANMIEIKKLTTDPDLILEVLR, the protein stability index is 1.94.

Take WTVANMCEIKKLTTDPDLILEVLR: the protein stability index was found to be 1.58.

As for WTVANMMEIKKLTTDPDLILEVLR, the protein stability index turned out to be 1.2.

WTVASMEEIKKLTTDPDLILEVLR: the protein stability index was 1.66.

For the variant WTVADMEEIKKLTTDPDLILEVLR, the protein stability index was 2.79.

As for WTVACMEEIKKLTTDPDLILEVLR, the protein stability index is 2.04.

Turning to WTVAWMEEIKKLTTDPDLILEVLR, the protein stability index is 1.76.

Turning to WTVAVMEEIKKLTTDPDLILEVLR, the protein stability index stood at 1.85.

In the case of WTVALMEEIKKLTTDPDLILEVLR, the protein stability index was 2.55.

As to WTVAPMEEIKKLTTDPDLILEVLR, the protein stability index is 1.76.

As for WTVAEMEEIKKLTTDPDLILEVLR, the protein stability index was found to be 2.47.

As to WTVAHMEEIKKLTTDPDLILEVLR, the protein stability index is 1.99.

Regarding WTVAAMEEIKKLTTDPDLILEVLR, the protein stability index was found to be 1.29.

Turning to WTVAQMEEIKKLTTDPDLILEVLR, the protein stability index was 2.39.

For the variant WTVAKMEEIKKLTTDPDLILEVLR, the protein stability index is 2.05.

As to WTVAYMEEIKKLTTDPDLILEVLR, the protein stability index amounted to 2.38.

With WTVAFMEEIKKLTTDPDLILEVLR, the protein stability index was found to be 1.98.

For WTVATMEEIKKLTTDPDLILEVLR, the protein stability index is 1.65.

Take WTVAGMEEIKKLTTDPDLILEVLR: the protein stability index amounted to 1.64.

As for WTVARMEEIKKLTTDPDLILEVLR, the protein stability index worked out at 1.16.

For the variant WTVANMEEMKKLTTDPDLILEVLR, the protein stability index was determined as 2.3.

WTVANMEENKKLTTDPDLILEVLR: the protein stability index was found to be 1.93.

Take WTVANMEESKKLTTDPDLILEVLR: the protein stability index was 1.85.

For the variant WTVANMEEQKKLTTDPDLILEVLR, the protein stability index stood at 2.14.

WTVANMEEDKKLTTDPDLILEVLR: the protein stability index was determined as 2.76.

Turning to WTVANMEEFKKLTTDPDLILEVLR, the protein stability index worked out at 1.87.
